Molecular target: SARS-CoV-2 spike protein receptor binding domain (RBD) (SARS-CoV-2) (UniProt P0DTC2)
Assay: ELISA

AZD7442 (combination of AZD8895 and AZD1061)
IC50: 0.065 µg/mL

From paper PMC8939769
